Results from article PMC10609148, “Hexa-Histidine, a Peptide with Versatile Applications in the Study of Amyloid-β(1–42) Molecular Mechanisms of Action” (Molecules, 2023).

What was measured:
[1] = molecular target: human recombinant cytochrome b5 reductase (Cb5R) with a His6-tag (human); assay: other fluorescence titration; FAD fluorescence (ex 460 nm, em 520 nm) of 32 nM Cb5R with a His6-tag titrated with Aβ peptides; 20 mM phosphate, 0.1 mM DTPA, pH 7, 25 °C; one-site fit; apparent constant, in peptide monomers
[2] = molecular target: human recombinant cytochrome b5 reductase (Cb5R) with a His6-tag (human); assay: inhibition of enzyme activity (NADH-dependent Cb5 reductase activity); 0.11 μg/mL Cb5R with a His6-tag, 5 μM Cb5, 0.25 mM NADH, rising Aβ peptide; absorbance at 550 nm; 20 mM phosphate, 0.1 mM DTPA, pH 7, 25 °C; fit to one inhibitor binding site; in Aβ monomers

EC50 [1]: 0.075 µM | half-saturation constant in the fitted one-site equation [1]: 99.3 | Ki [2]: 0.05 to 0.06 µM
Substance: Aβ(25–35) (peptide)
